Molecular target: w.t. (UniProt P08581)
Experiment: ELISA

## DN30
  Kd: 0.446 nM

— patent publication US20210070868A1
